# Ends that are not written are not given here.
# How the values were obtained:
# A1PI [1] = target: T1, A1PI (Homo sapiens, UniProt P01009); assay: A1PI binding on peptide-resin column, injection of 1 mg A1PI in equilibration buffer; conditions: 1 mg A1PI in equilibration buffer
# T1 construct: Human plasma is currently the only approved source of therapeutic AlPI
# In short: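 Peptides synthesized on A-Totda-Toyopearl chelate resin (0.1 mmole/g) packed in 0.4×5 cm columns; 1 mg A1PI injected in equilibration buffer at 4 °C or 20 °C, 865 or 523 μl/min. Flowthrough, 1M/3M NaCl washes and 2% acetic acid eluate quantified by A280 or immunonephelometry as percent of total eluted.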
# A1PI [2] = target: T1, A1PI; assay: A1PI purification from 5 mg hSA + 1 mg A1PI on peptide column, A1PI mass balance; assay type: binding; conditions: A1PI, 5 mg hSA + 1 mg A1PI; for Percent Eluted by Fraction, 1M NaCl / Percent Eluted by Fraction, 2% Ac. Acid / Percent Eluted by Fraction, 3M NaCl / Percent Eluted by Fraction, Flow: relative to total eluted
# In short: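 Peptides on A-Totda-Toyopearl resin (0.1 mmole/g) in 0.4×5 cm columns; 5 mg hSA + 1 mg A1PI loaded at 4 °C or 20 °C with 10 min residence (17 μl/min). Steps of 1M and 3M NaCl, then 2% acetic acid; fractions quantified by immunonephelometry for mass balance.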
# A1PI [3] = target: T1, A1PI; assay: Purification of A1PI from Effluent II+III on peptide column, A1PI mass balance; assay type: binding; conditions: A1PI, 1 ml Eff. II+III, 4° C.
# In short: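 Mass balance per protein was determined over the load and each step eluate (1M NaCl, 3M NaCl, 2% acetic acid) of peptide columns challenged with 1 ml Effluent II+III. The feed contained 20% ethanol and 20-25 mg/ml hSA, the flow was 865 μl/min after a 10 min residence, and the temperature was 4° C.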
# [4] = target: T2, apolipoprotein alpha-1 (Apo A-1) (Homo sapiens, UniProt P02647); assay: Purification from Effluent II+III, Apo A-1 mass balance; assay type: binding; conditions: 1 ml Eff. II+III, 4° C.
# T2 construct: Eff; II+III is a process intermediate in the Cohn plasma fractionation process; tissue Bayer Corporation (Clayton, N.C.); host or cells: plasma fraction: Cohn Effluent II+III
# T2 sequence (P02647 19-267): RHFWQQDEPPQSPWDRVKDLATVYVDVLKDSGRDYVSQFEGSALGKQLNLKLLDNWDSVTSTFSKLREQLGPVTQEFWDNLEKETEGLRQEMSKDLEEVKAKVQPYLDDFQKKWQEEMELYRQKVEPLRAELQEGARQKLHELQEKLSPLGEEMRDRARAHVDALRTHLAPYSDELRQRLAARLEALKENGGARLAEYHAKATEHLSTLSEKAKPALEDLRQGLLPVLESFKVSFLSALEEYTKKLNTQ
# Description: (§1) Sequences 1-11 and 15 were assayed with Effluent II+III (Eff. II+III). Eff. II+III is a process intermediate in the Cohn plasma fractionation process. The feed stream contains 20% (by volume) ethanol, 20-25 mg/ml hSA and approximately 1 mg/ml AlPI. The stream also contains other proteins including anti-thrombin III (AT3), immunoglobin G (IgG), immunoglobin A (IgA), apolipoprotein alpha-1 (Apo A-1), transferrin (Trf), haptoglobin (Hpt), and alpha-1 acid glycoprotein (AAG) at concentrations ranging from 0.1-1 mg/ml.
# (§2) The columns were assayed using the same technique as the hSA+AlPI experiments, allowing for a 10 minute residence time followed by a constant flow rate of 865 μl/min with step elutions of 1M NaCl, 3M NaCl, and 2% acetic acid. All experiments were conducted at 4° C. The mass balances for the injection of 1 ml Eff. […] The AlPI was enriched from 3% of the total protein in the feed to upwards of 50% in the acid eluate.
# Immunoglobulin A (IgA) = assay: Purification from Effluent II+III, IgA mass balance; assay type: binding, human; conditions: 1 ml Eff. II+III, 4° C.
# Description: as §1, §2
# Immunoglobulin G (IgG) = assay: Purification from Effluent II+III, IgG mass balance; assay type: binding, human; conditions: 1 ml Eff. II+III, 4° C.
# Description: as §1, §2
# A1PI [5] = target: T1, A1PI; assay: A1PI yield from dialyzed (aqueous) Effluent II+III; assay type: binding; conditions: 4° C.
# Description: Effluent II+III was dialyzed against equilibration buffer at 4° C. to remove the ethanol using a 15,000 molecular weight cut-off membrane. Nephelometry of the Eff. […] A portion of the identified sequences were assayed under the same conditions applied for neat Eff. II+III at 4° C. […] II+III compared to the neat, ethanol-containing feed. The binding strength differed for the aqueous feed as more AlPI eluted in 1M NaCl for the aqueous feed. The AlPI eluted in the 1M NaCl fractions was not as enriched as that eluted in the acid eluates.
# [6] = 20° C., * Below detection limit
# [7] = * as in Tables 4, 5 (below detection limit)
# [8] = 1 ml dialyzed Eff. II+III (ethanol removed)
# [9] = A1PI, 1 ml dialyzed Eff. II+III
# T1 sequence (P01009 25-418): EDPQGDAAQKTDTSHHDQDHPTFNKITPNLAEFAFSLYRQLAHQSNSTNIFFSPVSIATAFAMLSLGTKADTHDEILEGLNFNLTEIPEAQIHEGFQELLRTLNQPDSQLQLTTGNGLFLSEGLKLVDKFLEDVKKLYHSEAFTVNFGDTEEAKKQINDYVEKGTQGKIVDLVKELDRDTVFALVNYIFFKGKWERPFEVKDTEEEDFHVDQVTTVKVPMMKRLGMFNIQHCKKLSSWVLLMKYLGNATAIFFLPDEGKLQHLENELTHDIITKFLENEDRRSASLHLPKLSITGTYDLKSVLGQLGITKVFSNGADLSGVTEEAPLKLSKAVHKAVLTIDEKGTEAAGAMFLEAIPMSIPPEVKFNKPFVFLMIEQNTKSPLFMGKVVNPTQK
substance,measurement,setting,value
ARWYIH,"Percent A1PI Eluted by Fraction Based on Absorbance at 280 nm, 1M NaCl",A1PI [1]; 4° C.,55%
same,"Percent A1PI Eluted by Fraction Based on Absorbance at 280 nm, 2% Acetic Acid",A1PI [1]; 4° C.,45%
same,"Percent A1PI Eluted by Fraction Based on Absorbance at 280 nm, Flowthrough",A1PI [1]; 4° C.,0%
same,"Percent A1PI Eluted by Fraction, 1M NaCl",A1PI [1]; 20° C.,84%
same,"Percent A1PI Eluted by Fraction, 2% Acetic Acid",A1PI [1]; 20° C.,16%
same,"Percent A1PI Eluted by Fraction, Flowthrough",A1PI [1]; 20° C.,0%
same,"Mass Protein per Eluate Fraction, 1M NaCl","A1PI [2]; 4° C., * Below detection limit",0.33 mg
same,"Mass Protein per Eluate Fraction, 2% Ac. Acid","A1PI [2]; 4° C., * Below detection limit",0.41 mg
same,"Mass Protein per Eluate Fraction, 3M NaCl","A1PI [2]; 4° C., * Below detection limit",0.04 mg
same,"Percent Eluted by Fraction, 1M NaCl",A1PI [2]; 4° C.,43%
same,"Percent Eluted by Fraction, 2% Ac. Acid",A1PI [2]; 4° C.,53%
same,"Percent Eluted by Fraction, 3M NaCl",A1PI [2]; 4° C.,5%
same,"Percent Eluted by Fraction, Flow",A1PI [2]; 4° C.,0%
same,"Mass Protein per Eluate Fraction, 1M NaCl",A1PI [2]; [6],0.16 mg
same,"Mass Protein per Eluate Fraction, 2% Ac. Acid",A1PI [2]; [6],0.15 mg
same,"Mass Protein per Eluate Fraction, Flow",A1PI [2]; [6],0.67 mg
same,"Percent Eluted by Fraction, 1M NaCl",A1PI [2]; 20° C.,16%
same,"Percent Eluted by Fraction, 2% Ac. Acid",A1PI [2]; 20° C.,15%
same,"Percent Eluted by Fraction, 3M NaCl",A1PI [2]; 20° C.,0%
same,"Percent Eluted by Fraction, Flow",A1PI [2]; 20° C.,69%
same,"Percent Eluted by Fraction, 1M NaCl",A1PI [3],7%
same,"Percent Eluted by Fraction, 2% Acetic Acid",A1PI [3],75%
same,"Percent Eluted by Fraction, 3M NaCl",A1PI [3],0%
same,"Percent Eluted by Fraction, Flow",A1PI [3],18%
same,"Mass Protein per Eluate Fraction, 1M NaCl",A1PI [3]; [7],0.08 mg
same,"Mass Protein per Eluate Fraction, 2% Acetic Acid",A1PI [3]; [7],0.81 mg
same,"Mass Protein per Eluate Fraction, Flow",A1PI [3]; [7],0.20 mg
same,"Percent Eluted by Fraction, 1M NaCl",[4],0%
same,"Percent Eluted by Fraction, 2% Acetic Acid",[4],100%
same,"Percent Eluted by Fraction, 3M NaCl",[4],0%
same,"Percent Eluted by Fraction, Flow",[4],0%
same,"Mass Protein per Eluate Fraction, 2% Acetic Acid",[4]; [7],0.29 mg
same,"Percent Eluted by Fraction, 1M NaCl",Immunoglobulin A (IgA),18%
same,"Percent Eluted by Fraction, 2% Acetic Acid",Immunoglobulin A (IgA),56%
same,"Percent Eluted by Fraction, 3M NaCl",Immunoglobulin A (IgA),0%
same,"Percent Eluted by Fraction, Flow",Immunoglobulin A (IgA),25%
same,"Mass Protein per Eluate Fraction, 1M NaCl",Immunoglobulin A (IgA); [7],0.07 mg
same,"Mass Protein per Eluate Fraction, 2% Acetic Acid",Immunoglobulin A (IgA); [7],0.21 mg
same,"Mass Protein per Eluate Fraction, Flow",Immunoglobulin A (IgA); [7],0.09 mg
same,"Percent Eluted by Fraction, 1M NaCl",Immunoglobulin G (IgG),0%
same,"Percent Eluted by Fraction, 2% Acetic Acid",Immunoglobulin G (IgG),7%
same,"Percent Eluted by Fraction, 3M NaCl",Immunoglobulin G (IgG),0%
same,"Percent Eluted by Fraction, Flow",Immunoglobulin G (IgG),93%
same,"Mass Protein per Eluate Fraction, 2% Acetic Acid",Immunoglobulin G (IgG); [7],0.02 mg
same,"Mass Protein per Eluate Fraction, Flow",Immunoglobulin G (IgG); [7],0.23 mg
same,"Mass A1PI per Eluate Fraction, 1M NaCl",A1PI [5]; [8],0.18 mg
same,"Mass A1PI per Eluate Fraction, 2% Acetic Acid",A1PI [5]; [8],0.20 mg
same,"Mass A1PI per Eluate Fraction, Flowthrough",A1PI [5]; [8],0.24 mg
same,"Percent Eluted by Fraction, 1M NaCl",A1PI [5]; [9],30%
same,"Percent Eluted by Fraction, 2% Acetic Acid",A1PI [5]; [9],32%
same,"Percent Eluted by Fraction, Flowthrough",A1PI [5]; [9],39%
